Reference: publication PMC8216847

Biological target: SARS-CoV-1 S-2P (SARS-CoV-1)

CV3-25 (antibody)
IC50 of neutralisation of SARS-CoV-1 pseudovirus: 2.1 µg/mL
